Experiments:
[1] = target: SARS-CoV-2 spike receptor binding domain, Delta B.1.617.2 (SARS-CoV-2 Delta B.1.617.2 (on …, strain))
[2] = target: SARS-CoV-2 Spike RBD Omicron BA.4&BA.5 (SARS-CoV-2 Omicron BA.4/BA.5, strain)
[3] = target: SARS-CoV-2 spike receptor binding domain, Wuhan-Hu-1 (WT) (SARS-CoV-2 Wuhan-Hu-1, UniProt P0DTC2)
[4] = target: SARS-CoV-2 spike receptor binding domain, Beta B.1.351 (SARS-CoV-2 Beta B.1.351 (on Wuhan-Hu-1 …, strain))
[5] = target: SARS-CoV-2 spike receptor binding domain, Omicron BA.1 (IPBCAMS-OM01/2021) (SARS-CoV-2 Omicron BA.1, isolate …, strain)

B1: H7 (VHH)
VHH: QVQLVESGGGLVQPGGSLRLSCAASGYSYRSTYYLGWFRQAPGQGLEAVAAIYGAGSTYYADSVKGRFTISRDNSKNTLYLQMNSLRAEDTAVYYCAAGDESTRGYGYSWDYWGQGTLVTVSS
- Kd [1]: 7.2 nM
- binding result [2]: binds
- Kd [3]: 4.4 nM
- Kd [4]: 3.7 nM
- binding result [5]: binds

Source: paper PMC9524272 (Frontiers in Immunology, 2022)
